What was measured:
[1] = test system: MS2 coat protein; assay: apparent KD of MS2 coat protein, switch OFF state (with FMN for OFF switches, without FMN for ON switches); designed switch direction (-1 OFF switch, 1 ON switch): -1; higher = weaker reporter binding; details: FMN input: 0 or 200 uM; Eterna round: R93 (includes R88 designs)
In short: (§1)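 The buffer was 100 mM Tris-HCl pH 7.5 with 80 mM KCl and 4 mM MgCl2, used without or with constant ligand. In it, RNA switches transcribed on-chip from Illumina sequencing clusters were titrated with SNAP-549-labelled MS2 coat protein in twofold steps from 0.7 or 1.5 nM to 3 µM. Apparent KD for each design is the median of its normalised cluster binding-curve fits.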

[2] = test system: MS2 coat protein; assay: apparent KD of MS2 coat protein, switch ON state; designed switch direction (-1 OFF switch, 1 ON switch): -1; higher = weaker reporter binding; details: FMN input: 0 or 200 uM; Eterna round: R93 (includes R88 designs)
In short: as §1

Sequence	apparent KD of MS2 coat protein [1] [nM]	apparent KD of MS2 coat protein [2] [nM]
AAAAAACAUGAGGAUCACCCAUGUGAGGAUAUGCGAAAAUAAAAUAAAAUAAAUAAAAGCAGAAGGCACAAAAA [Mat - Exclusion 1 - Eli mod - D59]	43.9	41.1
AUAAUGUGAGGAUAUACAUGAGGAUCACCCAUGUAAUUAAAAAGGAGAGAAACAAUACGUAGAAGGUACAUUUA [JR_Exc003_Sub510]	29	26.7
AGCUAGUCAGGAUAUACGGACAUGUCAGGAGACGUGAAGGGACAUGAGGAUCACCCAUGUAGAAGGGACUAGCG [74%, Web mod - With 4 more G's]	106	35.5
AAGAAGUGAGGAUAUACAUGAGGAUCACCCAUGUAAAAGAAAGAAAAGGGAAAGAAAAGUAGAAGGCACAAGAA [Maatkare Hatshepsut]	58.3	36.2
AAAAAUGGAGGAUAUACAUGAGGAUCACCCAUGUUAGAACAAAAAAAAGGGAAAGAAAGUAGAAGGCCAUAAAA [Ex 3 May 25]	49.1	34.7
AAAAAACAUGAGGAUCACCCAUGUGAGGAUAUGAACGAAAAUAAAUAAAAAUAAAAGUUCAGAAGGUACGAAAA [66%, Wbt, 3]	30.7	25.2
AGGAAACAUGAGGAUCACCCAUGUCAGGAUAUAGGAAAGAAAAGAAAAGAAAGAAGAAUUAGAAGGGACAAGAA [King Scorpion]	16.5	23.5
CUCAUGUGAGGAUAUCAGUAGUAAAAAAAUAAAAUUACUACUGAGAAGGCACAUGAGGAUCACCCAUGUGCCAA [EX4 337: Super Stable 37]	27.6	21.3
CUCAAGUGAGGAUAUUUAAGAAAAGAAGAGAAAGAAAAGAAAAAGAAGGCACAUGAGGAUCACCCAUGUAAGAA [EteRNA is fun!]	32.8	31.5
AAAAAGGGAGGAUAUACAUGAGGAUCACCCAUGUGAAGGACGAAAAAGAGUCUAAAGGGUAGAAGGCCCAAAAA [65%, Moding Exclusion3-cac2, 11]	43.4	52.5
AAAAGGGCAGGAUAUGCGUACUCACGGAAAAACUGGAUGGUACAUGAGGAUCACCCAUGUAGAAGGGCUAAAAA [Dora Explored 17 - Jieux - Exclusion 2]	40.9	57.5
AAAAAACAUGAGGAUCACCCAUGUGAGGAUAUGCAAAAGAAAAGAAAAGAAAGAAGAAGCAGAAGGCACAAGAA [Djedefra]	36.8	29.4
AACCAACAUGAGGAUCACCCAUGUCAGGAUAUGCAAAUAACAAACAACAAACAACAAAGCAGAAGGGACAACAA [Mat - Exclusion 1 - Eli mod - D50]	20.5	15.4
AACAGUACAGGAUAUACAUGAGGAUCACCCAUGUAAAAAUAAAAGGGAAACUCAAAAAGUAGAAGGGUACUGGA [Moding Maslow revisited (73) 13]	78.6	117
AAAAAUGGAGGAUAUACAUGAGGAUCACCCAUGUGUGACUAUACUAUGUGCUCUUCAGGUAGAAGGCCAAAAAA [Gilly Gone Silly 19 - Jieux - Exclusion 3]	249	44.3
AGCUAGUGAGGAUAUACGAACAUGUCAAAAGACGUGAAAAAACAUGAGGAUCACCCAUGUAGAAGGCACUAGCA [Mat - Exclusion 2 - JL-Eli mod - D56]	16.9	19.2
AGUCAUACAGGAUAUACAUGAGGAUCACCCAUGUAUAUCCAAAAAAGGUGAUCCUCAUGUAGAAGGGUAUGACA [EX3 202: Super Stable 2]	26.9	13.7
AAAUGACAUGAGGAUCACCCAUGUCAGGAUAUGACUUGAAAAAAAAAAAAAAAACAUGUCAGAAGGGACAUGGG [Design 50: Sub-opt FB]	9.45	15.7
AAAAAACAUGAGGAUCACCCAUGUGAGGAUAUGACGUAAAUAAAGAAAGAAGAAAUCGUCAGAAGGCACACCAA [55%, Disencluded 2, 5]	43.1	29.8
AACAGUACAGGAUAUACAUGAGGAUCACCCAUGUAGGGAUAAAGUGGCGUACCACAAAGUAGAAGGGUACUGGA [Moding Maslow revisited (73) 4]	142	30.6
AACAUGUAAGGAUAUAGAAGAAAAGAAAAGAAAGAAAAGAACUAGAAGGUACAUGAGGAUCACCCAUGUAAGAA [EteRNA is fun!]	16.2	33.1
AAAAAGUGAGGAUAUGGUAAAAAAAAAAAAAAAAAAAAAAUCCAGAAGGCACAUGAGGAUCACCCAUGUAAAAA [Jolly Cotton - Jieux - Exclusion 4]	29.7	46.2

Sequence	apparent KD of MS2 coat protein [1] [nM]	apparent KD of MS2 coat protein [2] [nM]
GGGCCACAUGAGGAUCACCCAUGUAAGGAUAUGCUAGGGAUGGAAAAAAUUACGCAAAGCAGAAGGUACUAAAG [Janelle Amethyst 18 Mod 9 - Jieux - Exclusion 1]	35.5	26.9
AGUAUGCGAGGAUAUACAUGAGGAUCACCCAUGUGAGAGAUAAAAGUGAGAAAGACAAGUAGAAGGCGCGUACA [JL Lego Mod 23]	354	54.8
AAAUACUAAGGAUAUACAUGAGGAUCACCCAUGUACAAACCCGUGGAACGGAUCCUUAGUAGAAGGUGGACGAA [Onquerar]	13.9	13.6
AACAGUACAGGAUAUACAUGAGGAUCACCCAUGUGAAAAUUAAGUGGCGUACCACAAUGUAGAAGGGUACUGGA [Moding Maslow Revisited (73) 24]	83.7	110
AAAAUAAAAGGAUAUAAAAAUAAAAGUCAGGAUAUAGGAAACUAGAAGGGACAUGAGGAUCACCCAUGUAAAAU [Meechl Ex4 R2 m1]	33.8	47.8
AGAACGUGAGGAUAUACUAACAAACCUCAACAAACAAACAGACAUGAGGAUCACCCAUGUAGAAGGCACAAAAA [EXC - 2]	27.2	54.2
UCCAGACAUGAGGAUCACCCAUGUCAGGAUAUCUACAGAACCUCAUGUAAAAAACUGUAGAGAAGGGAUAUGAA [Design 97: Pseudoknot G]	16	16.7
CUCAUGUCAGGAUAUCAGUAGUAAAAAAAAAAAAUUACUACUGAGAAGGGACAUGAGGAUCACCCAUGUCCCUU [EX4 301: Super Stable 1]	16.7	20.4
AAGAAGUGAGGAUAUACAUGAGGAUCACCCAUGUAAAGAAGAAGAGGAGAGAAUAAAGGUAGAAGGCACAAGAA [JR_Exclusion3_Sub4]	39.6	33.6
AAAAGGUGAGGAUAUACGAAAAAAAAAAAAAAAAAAAAAAAGUAGAAGGCACAUGAGGAUCACCCAUGUAAAAA [LROPPY Exclusion 4 - v01_deltaG=2.54]	41.3	31.3
AAAAAGGUAGGAUAUACAUGAGGAUCACCCAUGUAAAUAAAUGGAGAAAAAAACAAUUGUAGAAGGGCCAAAAA [Ex3 Malc#8]	43.1	39.9
AACAGUACAGGAUAUACAUGAGGAUCACCCAUGUGAGAAUAAAGUGGCGUACCACAAAGUAGAAGGGUACUGGA [Mat - Exclusion 3 - JL mod - D20]	148	26.7
UCGAUGUCAGGAUAUGUGUAAAGAAUAAAACAAAUAACAACACAGAAGGGACAUGAGGAUCACCCAUGUUACGA [May 42]	86.2	42.2
AGGGAGUGAGGAUAUGCGAAAGAAAAAGAAGGAAAAAAAGAGCAGAAGGUACAUGAGGAUCACCCAUGUAAAAA [milkweed 8]	16.9	27.9
UAAAACAGAGGAUAUACAUGAGGAUCACCCAUGUAAAAAUGUAGAAGGCUGAAAUAAAUAAGAAGGAAAUAAAA [Meechl Ex3 R2 m1]	25.6	24.8
AGUCAGAGAGGAUAUACAUGAAAAAAAAAAGUUAGAUCCCUACAUGAGGAUCACCCAUGUAGAAGGCUCUGACA [Ex2 Design 151: Sub-opt 15]	27	57.8
GGCACUGUAGGAUAUACAUGAACAAUUGGCAUCCUCAGUCCACAUGAGGAUCACCCAUGUAGAAGGAUAGAAAA [Besorees]	91.1	131
CUCUUGUGAGGAUAUGUAAGAAAAGAAAAGAAAGAAAAGAAACAGAAGGCACAUGAGGAUCACCCAUGUAAGAA [EteRNA is fun!]	45.9	31.7
AAAAACCUAGGAUAUACAUGAGGAUCACCCAUGUAAAGAAACAAAAAGGGAAAAACAAGUAGAAGGAGGAAGAA [JR_Exc003_Sub1202]	18.2	16.3
AAACCACAUGAGGAUCACCCAUGUCAGGAUAUGCUAUGGAAAAAUAAAAUAAAACAUAGCAGAAGGGACAAAAA [Mat - Exclusion 1 - Eli mod - D34]	52	31.1
AAGGGACAUGAGGAUCACCCAUGUCAGGAUAUGCUAUGGAAAAAUAAAAUAAAACAUAGCAGAAGGGAUAAAAA [Mat - Exclusion 1 - Eli mod - D32]	51.1	23
AACAUGUAAGGAUAUGAAAGAAAAGAAAAGAAAGAAAAGAAUCAGAAGGUACAUGAGGAUCACCCAUGUAAGAA [EteRNA is fun!]	26.7	34.7

Reference: the supplement of paper PMC9170038
